Test results published in article PMC11372060, “Two KaiABC systems control circadian oscillations in one cyanobacterium” (Nature Communications, 2024).

Tests used:
Test in all cases: native gel or EMSA; single recombinant Kai proteins or two of them together, 16 h at 30 °C in phosphorylation assay buffer (0.2 µg/µl dephosphorylated Strep-KaiC3, 0.1 µg/µl of the others); 4-16% clear native PAGE at 4 °C; Coomassie or anti-His blot
[1] = target: Strep-KaiC3 (Synechocystis sp. PCC 6803)
[2] = target: KaiA3-His6 (Synechocystis sp. PCC 6803)
[3] = target: KaiB3 (recombinant, GST-tag removed) (Synechocystis sp. PCC 6803)
[4] = target: the molecule itself

In the case of Strep-KaiC3 (natural protein), the stoichiometry N [1] is reported as 6.

Work on KaiA3-His6 (natural protein) yielded a stoichiometry N [2] of over 2.

With “KaiB3 (recombinant, GST-tag removed) (natural protein)” the stoichiometry N [3] was 4.

B1: Synechococcus KaiA (recombinant, GST-tag removed) (natural protein, Synechococcus elongatus PCC 7942, UniProt Q79PF6 1-284, looked up)
chain: MLSQIAICIWVESTAILQDCQRALSADRYQLQVCESGEMLLEYAQTHRDQIDCLILVAANPSFRAVVQQLCFEGVVVPAIVVGDRDSEDPDEPAKEQLYHSAELHLGIHQLEQLPYQVDAALAEFLRLAPVETMADHIMLMGANHDPELSSQQRDLAQRLQERLGYLGVYYKRDPDRFLRNLPAYESQKLHQAMQTSYREIVLSYFSPNSNLNQSIDNFVNMAFFADVPVTKVVEIHMELMDEFAKKLRVEGRSEDILLDYRLTLIDVIAHLCEMYRRSIPRET
notes: KaiA of Synechococcus elongatus PCC 7942; plasmid provided by T. Kondo; Migrates at about 60 kDa on clear native PAGE (dimer); source: E. coli BL21(DE3), purified (glutathione-agarose 4B, PreScission cleavage); not shown: GST, N-terminal, cleaved
In the case of B1, the “stoichiometry N” value [4] is reported as 2.
